Laboratory results published in paper PMC6954210.

Assays:
[1] = IP, p517 Western blot, IBMX/Fsk stimulation; settings: glycan gained; control: no OGT overexpression
[2] = IP, p-Ser Western blot, IBMX/Fsk-treated HeLa; settings: glycan gained; control: no OGT overexpression
[3] = IP of endogenous PLIN1, p517 Western blot; settings: glycan gained; control: WT mice
[4] = p517 Western blot, fat of 6 h fasted mice; settings: glycan lost; control: WT mice
[5] = p492/p517 immunofluorescence, IBMX/Fsk-treated primary eWAT adipocytes; settings: glycan lost; control: WT adipocytes
[6] = Western blot of PLIN1 in iWAT; settings: glycan lost; control: WT mice

B1: perilipin 1 (PLIN1): OGT overexpression (protein)
parent chain: MSMNKGPTLLDGDLPEQENVLQRVLQLPVVSGTCECFQKTYNSTKEAHPLVASVCNAYEKGVQGASNLAAWSMEPVVRRLSTQFTAANELACRGLDHLEEKIPALQYPPEKIASELKGTISTRLRSARNSISVPIASTSDKVLGATLAGCELALGMAKETAEYAANTRVGRLASGGADLALGSIEKVVEFLLPPDKESAPSSGRQRTQKAPKAKPSLVRRVSTLANTLSRHTMQTTAWALKQGHSLAMWIPGVAPLSSLAQWGASAAMQVVSRRQSEVRVPWLHNLAASQDESHDDQTDTEGEETDDEEEEEESEAEENVLREVTALPNPRGLLGGVVHTVQNTLRNTISAVTWAPAAVLGTVGRILHLTPAQAVSSTKGRAMSLSDALKGVTDNVVDTVVHYVPLPRLSLMEPESEFRDIDNPSAEAERKGSGARPASPESTPRPGQPRGSLRSVRGLSAPSCPGLDDKTEASARPGFLAMPREKPARRVSDSFFRPSVMEPILGRAQYSQLRKKS
With B1 the “other: PLIN1 phosphorylation” value [1] was “abolishes” and the “other: PLIN1 phosphorylation” value [2] was “decreases”.

B2: perilipin 1 (PLIN1): OGT AKI (adipose rOGT knockin) (protein)
parent chain: MSMNKGPTLLDGDLPEQENVLQRVLQLPVVSGTCECFQKTYNSTKEAHPLVASVCNAYEKGVQGASNLAAWSMEPVVRRLSTQFTAANELACRGLDHLEEKIPALQYPPEKIASELKGTISTRLRSARNSISVPIASTSDKVLGATLAGCELALGMAKETAEYAANTRVGRLASGGADLALGSIEKVVEFLLPPDKESAPSSGRQRTQKAPKAKPSLVRRVSTLANTLSRHTMQTTAWALKQGHSLAMWIPGVAPLSSLAQWGASAAMQVVSRRQSEVRVPWLHNLAASQDESHDDQTDTEGEETDDEEEEEESEAEENVLREVTALPNPRGLLGGVVHTVQNTLRNTISAVTWAPAAVLGTVGRILHLTPAQAVSSTKGRAMSLSDALKGVTDNVVDTVVHYVPLPRLSLMEPESEFRDIDNPSAEAERKGSGARPASPESTPRPGQPRGSLRSVRGLSAPSCPGLDDKTEASARPGFLAMPREKPARRVSDSFFRPSVMEPILGRAQYSQLRKKS
For B2, the “other: PLIN1 phosphorylation” value [3] was “decreases”.

B3: perilipin 1 (PLIN1): OGT AKO (iWAT) (protein)
parent chain: MSMNKGPTLLDGDLPEQENVLQRVLQLPVVSGTCECFQKTYNSTKEAHPLVASVCNAYEKGVQGASNLAAWSMEPVVRRLSTQFTAANELACRGLDHLEEKIPALQYPPEKIASELKGTISTRLRSARNSISVPIASTSDKVLGATLAGCELALGMAKETAEYAANTRVGRLASGGADLALGSIEKVVEFLLPPDKESAPSSGRQRTQKAPKAKPSLVRRVSTLANTLSRHTMQTTAWALKQGHSLAMWIPGVAPLSSLAQWGASAAMQVVSRRQSEVRVPWLHNLAASQDESHDDQTDTEGEETDDEEEEEESEAEENVLREVTALPNPRGLLGGVVHTVQNTLRNTISAVTWAPAAVLGTVGRILHLTPAQAVSSTKGRAMSLSDALKGVTDNVVDTVVHYVPLPRLSLMEPESEFRDIDNPSAEAERKGSGARPASPESTPRPGQPRGSLRSVRGLSAPSCPGLDDKTEASARPGFLAMPREKPARRVSDSFFRPSVMEPILGRAQYSQLRKKS
In the case of B3, the “other: PLIN1 phosphorylation” value [4] is reported as “no change”.

B4: perilipin 1 (PLIN1): OGT knockout (protein)
parent chain: MSMNKGPTLLDGDLPEQENVLQRVLQLPVVSGTCECFQKTYNSTKEAHPLVASVCNAYEKGVQGASNLAAWSMEPVVRRLSTQFTAANELACRGLDHLEEKIPALQYPPEKIASELKGTISTRLRSARNSISVPIASTSDKVLGATLAGCELALGMAKETAEYAANTRVGRLASGGADLALGSIEKVVEFLLPPDKESAPSSGRQRTQKAPKAKPSLVRRVSTLANTLSRHTMQTTAWALKQGHSLAMWIPGVAPLSSLAQWGASAAMQVVSRRQSEVRVPWLHNLAASQDESHDDQTDTEGEETDDEEEEEESEAEENVLREVTALPNPRGLLGGVVHTVQNTLRNTISAVTWAPAAVLGTVGRILHLTPAQAVSSTKGRAMSLSDALKGVTDNVVDTVVHYVPLPRLSLMEPESEFRDIDNPSAEAERKGSGARPASPESTPRPGQPRGSLRSVRGLSAPSCPGLDDKTEASARPGFLAMPREKPARRVSDSFFRPSVMEPILGRAQYSQLRKKS
In the case of B4, the “other: PLIN1 phosphorylation” value [5] is reported as “increases”.

B5: perilipin 1 (PLIN1): OGT AKO (eWAT) (protein)
parent chain: MSMNKGPTLLDGDLPEQENVLQRVLQLPVVSGTCECFQKTYNSTKEAHPLVASVCNAYEKGVQGASNLAAWSMEPVVRRLSTQFTAANELACRGLDHLEEKIPALQYPPEKIASELKGTISTRLRSARNSISVPIASTSDKVLGATLAGCELALGMAKETAEYAANTRVGRLASGGADLALGSIEKVVEFLLPPDKESAPSSGRQRTQKAPKAKPSLVRRVSTLANTLSRHTMQTTAWALKQGHSLAMWIPGVAPLSSLAQWGASAAMQVVSRRQSEVRVPWLHNLAASQDESHDDQTDTEGEETDDEEEEEESEAEENVLREVTALPNPRGLLGGVVHTVQNTLRNTISAVTWAPAAVLGTVGRILHLTPAQAVSSTKGRAMSLSDALKGVTDNVVDTVVHYVPLPRLSLMEPESEFRDIDNPSAEAERKGSGARPASPESTPRPGQPRGSLRSVRGLSAPSCPGLDDKTEASARPGFLAMPREKPARRVSDSFFRPSVMEPILGRAQYSQLRKKS
In the case of B5, the “other: PLIN1 phosphorylation” value [4] is reported as “increases”.

B6: perilipin 1 (PLIN1): OGT AKO (protein)
parent chain: MSMNKGPTLLDGDLPEQENVLQRVLQLPVVSGTCECFQKTYNSTKEAHPLVASVCNAYEKGVQGASNLAAWSMEPVVRRLSTQFTAANELACRGLDHLEEKIPALQYPPEKIASELKGTISTRLRSARNSISVPIASTSDKVLGATLAGCELALGMAKETAEYAANTRVGRLASGGADLALGSIEKVVEFLLPPDKESAPSSGRQRTQKAPKAKPSLVRRVSTLANTLSRHTMQTTAWALKQGHSLAMWIPGVAPLSSLAQWGASAAMQVVSRRQSEVRVPWLHNLAASQDESHDDQTDTEGEETDDEEEEEESEAEENVLREVTALPNPRGLLGGVVHTVQNTLRNTISAVTWAPAAVLGTVGRILHLTPAQAVSSTKGRAMSLSDALKGVTDNVVDTVVHYVPLPRLSLMEPESEFRDIDNPSAEAERKGSGARPASPESTPRPGQPRGSLRSVRGLSAPSCPGLDDKTEASARPGFLAMPREKPARRVSDSFFRPSVMEPILGRAQYSQLRKKS
With B6 the expression_or_secretion [6] was “no change”.
